From patent publication US20240209076A1 (KODIAK SCIENCES, published 2024)
Changes are numbered by the printed parent chain. Numbers in names are those of the source.

B1: anti-IL-6 antibody, heavy chain A49T, light chain WT (antibody, IgG1, V domains shown)
VH: EVQLVESGGGLVQPGGSLRLSCAASGFTFSPFAMSWVRQAPGKGLEWVTKISPGGSWTYYSDTVTGRFTFSLDTSKSTAYLQMNSLRAEDTAVYYCARQLWGYYALDIWGQGTLVTVSS
VL: DIQLTQSPSSLSASVGDRVTITCSASISVSYMYWYQQKPGKAPKLLIYDMSNLASGVPSRFSGSGSGTDFTLTISSLQPEDFATYYCMQWSGYPYTFGQGTKVEIK
notes: Full IgG1 tested; V domains derived as in m2
B2: anti-IL-6 antibody, heavy chain T58V, light chain WT (antibody, IgG1, V domains shown)
VH: B1 VH with T49A, T58V
VL: B1 VL
notes: as for B1
B3: anti-IL-6 antibody, heavy chain F27G, light chain WT (antibody, IgG1, V domains shown)
VH: B1 VH with F27G, T49A
VL: B1 VL
notes: as for B1
B4: anti-IL-6 antibody, heavy chain T58K, light chain WT (antibody, IgG1, V domains shown)
VH: B1 VH with T49A, T58K
VL: B1 VL
notes: as for B1
B5: anti-IL-6 antibody, heavy chain F27P, light chain WT (antibody, IgG1, V domains shown)
VH: B1 VH with F27P, T49A
VL: B1 VL
notes: as for B1
B6: anti-IL-6 antibody, heavy chain T28Y, light chain WT (antibody, IgG1, V domains shown)
VH: B1 VH with T28Y, T49A
VL: B1 VL
notes: as for B1
B7: anti-IL-6 antibody, heavy chain T28E, light chain WT (antibody, IgG1, V domains shown)
VH: B1 VH with T28E, T49A
VL: B1 VL
notes: as for B1
B8: anti-IL-6 antibody, heavy chain S35H, light chain WT (antibody, IgG1, V domains shown)
VH: B1 VH with S35H, T49A
VL: B1 VL
notes: as for B1
B9: anti-IL-6 antibody, heavy chain T63D, light chain WT (antibody, IgG1, V domains shown)
VH: B1 VH with T49A, T63D
VL: B1 VL
notes: as for B1
B10: anti-IL-6 antibody, heavy chain G102D, light chain WT (antibody, IgG1, V domains shown)
VH: B1 VH with T49A, G102D
VL: B1 VL
notes: as for B1
B11: anti-IL-6 antibody, heavy chain S56H, light chain WT (antibody, IgG1, V domains shown)
VH: B1 VH with T49A, S56H
VL: B1 VL
notes: as for B1
B12: anti-IL-6 antibody, heavy chain F27V, light chain WT (antibody, IgG1, V domains shown)
VH: B1 VH with F27V, T49A
VL: B1 VL
notes: as for B1
B13: anti-IL-6 antibody, heavy chain A97V, light chain WT (antibody, IgG1, V domains shown)
VH: B1 VH with T49A, A97V
VL: B1 VL
notes: as for B1
B14: anti-IL-6 antibody, heavy chain D62F, light chain WT (antibody, IgG1, V domains shown)
VH: B1 VH with T49A, D62F
VL: B1 VL
notes: as for B1
B15: anti-IL-6 antibody, heavy chain T58R, light chain WT (antibody, IgG1, V domains shown)
VH: B1 VH with T49A, T58R
VL: B1 VL
notes: as for B1
B16: anti-IL-6 antibody, heavy chain S61A, light chain WT (antibody, IgG1, V domains shown)
VH: B1 VH with T49A, S61A
VL: B1 VL
notes: as for B1
B17: anti-IL-6 antibody, heavy chain Q99H, light chain WT (antibody, IgG1, V domains shown)
VH: B1 VH with T49A, Q99H
VL: B1 VL
notes: as for B1
B18: anti-IL-6 antibody, heavy chain S30G, light chain WT (antibody, IgG1, V domains shown)
VH: B1 VH with S30G, T49A
VL: B1 VL
notes: Full IgG1 tested; V domains derived as in m2; also called S30G (heavy chain)
B19: anti-IL-6 antibody, heavy chain A105H, light chain WT (antibody, IgG1, V domains shown)
VH: B1 VH with T49A, A105H
VL: B1 VL
notes: as for B1
B20: anti-IL-6 antibody, heavy chain S30Y, light chain WT (antibody, IgG1, V domains shown)
VH: B1 VH with S30Y, T49A
VL: B1 VL
notes: as for B1
B21: anti-IL-6 antibody, heavy chain S35Q, light chain WT (antibody, IgG1, V domains shown)
VH: B1 VH with S35Q, T49A
VL: B1 VL
notes: as for B1
B22: anti-IL-6 antibody, heavy chain F27S, light chain WT (antibody, IgG1, V domains shown)
VH: B1 VH with F27S, T49A
VL: B1 VL
notes: as for B1
B23: anti-IL-6 antibody, heavy chain S61R, light chain WT (antibody, IgG1, V domains shown)
VH: B1 VH with T49A, S61R
VL: B1 VL
notes: as for B1
B24: anti-IL-6 antibody, heavy chain A105Q, light chain WT (antibody, IgG1, V domains shown)
VH: B1 VH with T49A, A105Q
VL: B1 VL
notes: as for B1
B25: anti-IL-6 antibody, heavy chain S30W, light chain WT (antibody, IgG1, V domains shown)
VH: B1 VH with S30W, T49A
VL: B1 VL
notes: as for B1
B26: anti-IL-6 antibody, heavy chain T28A, light chain WT (antibody, IgG1, V domains shown)
VH: B1 VH with T28A, T49A
VL: B1 VL
notes: as for B1
B27: anti-IL-6 antibody, heavy chain S56R, light chain WT (antibody, IgG1, V domains shown)
VH: B1 VH with T49A, S56R
VL: B1 VL
notes: as for B1
B28: anti-IL-6 antibody, heavy chain T63G, light chain WT (antibody, IgG1, V domains shown)
VH: B1 VH with T49A, T63G
VL: B1 VL
notes: as for B1
B29: anti-IL-6 antibody, heavy chain T65Y, light chain WT (antibody, IgG1, V domains shown)
VH: B1 VH with T49A, T65Y
VL: B1 VL
notes: as for B1
B30: anti-IL-6 antibody, heavy chain T63K, light chain WT (antibody, IgG1, V domains shown)
VH: B1 VH with T49A, T63K
VL: B1 VL
notes: as for B1
B31: anti-IL-6 antibody, heavy chain T63Q, light chain WT (antibody, IgG1, V domains shown)
VH: B1 VH with T49A, T63Q
VL: B1 VL
notes: as for B1
B32: anti-IL-6 antibody, heavy chain Q99A, light chain WT (antibody, IgG1, V domains shown)
VH: B1 VH with T49A, Q99A
VL: B1 VL
notes: as for B1
B33: anti-IL-6 antibody, heavy chain L106I, light chain WT (antibody, IgG1, V domains shown)
VH: B1 VH with T49A, L106I
VL: B1 VL
notes: as for B1
B34: anti-IL-6 antibody, heavy chain T65G, light chain WT (antibody, IgG1, V domains shown)
VH: B1 VH with T49A, T65G
VL: B1 VL
notes: as for B1
B35: anti-IL-6 antibody, heavy chain F27R, light chain WT (antibody, IgG1, V domains shown)
VH: B1 VH with F27R, T49A
VL: B1 VL
notes: as for B1
B36: anti-IL-6 antibody, heavy chain R98G, light chain WT (antibody, IgG1, V domains shown)
VH: B1 VH with T49A, R98G
VL: B1 VL
notes: as for B1
B37: anti-IL-6 antibody, heavy chain T63E, light chain WT (antibody, IgG1, V domains shown)
VH: B1 VH with T49A, T63E
VL: B1 VL
notes: as for B1
B38: anti-IL-6 antibody, heavy chain T28K, light chain WT (antibody, IgG1, V domains shown)
VH: B1 VH with T28K, T49A
VL: B1 VL
notes: as for B1

Molecular target: T1, recombinant human IL-6 (human, UniProt P05231 30-212)
T1 construct: Flowed in solution over the captured antibodies
Experiment: SPR (Biacore), supernatant IgG on Protein A, 25 C
Description: Antibodies were captured on a Protein A chip (GE) by injecting 1:20 dilution of cell supernatant at 10 μL/min for 60 seconds. […] The sensor chip was regenerated by a 60 seconds injection of 10 mM Glycine pH 1.7 at flow rate of 50 μL/min. […] For this setup, 1 μg/mL of purified antibody was injected over a Protein A chip at 10 μL/min for 25-28 seconds. Data analysis for supernatant and purified samples were performed using BIAevaluation software (GE). All sensorgrams were double reference subtracted and fit using a 1:1 Langmuir binding model.

T1 sequence (P05231 30-212 limits assumed): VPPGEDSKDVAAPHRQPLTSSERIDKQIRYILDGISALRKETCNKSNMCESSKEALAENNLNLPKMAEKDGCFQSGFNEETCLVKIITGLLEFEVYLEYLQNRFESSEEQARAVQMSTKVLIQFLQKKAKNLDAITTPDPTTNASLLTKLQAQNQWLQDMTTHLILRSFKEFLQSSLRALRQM

Row | Kd [nM] | koff [s⁻¹] | kon [M⁻¹ s⁻¹] | Binder
1 | 0.337 | 0.000151 | 448000 | B1
2 | 0.226 | 0.000181 | 803000 | B2
3 | 0.24 | 0.000206 | 856000 | B3
4 | 0.39 | 0.000179 | 460000 | B4
5 | 0.344 | 0.000196 | 570000 | B5
6 | 0.412 | 0.000137 | 332000 | B6
7 | 0.347 | 0.000163 | 469000 | B7
8 | 0.379 | 0.000132 | 348000 | B8
9 | 0.423 | 0.000174 | 410000 | B9
10 | 1.33 | 0.0006 | 452000 | B10
11 | 0.452 | 0.000161 | 356000 | B11
12 | 0.442 | 0.000208 | 470000 | B12
13 | 0.574 | 0.000179 | 311000 | B13
14 | 0.35 | 0.000147 | 420000 | B14
15 | 0.426 | 0.000152 | 357000 | B15
16 | 0.394 | 0.000149 | 379000 | B16
17 | 1.94 | 0.00105 | 539000 | B17
18 | 0.333 | 0.000132 | 398000 | B18
19 | 1.79 | 0.000723 | 404000 | B19

Row | Kd [nM] | koff [s⁻¹] | kon [M⁻¹ s⁻¹] | Binder
20 | 0.334 | 0.000122 | 365000 | B20
21 | 0.346 | 0.00013 | 375000 | B21
22 | 0.278 | 0.000203 | 731000 | B22
23 | 0.467 | 0.000162 | 348000 | B23
24 | 1.04 | 0.000493 | 474000 | B24
25 | 0.376 | 0.000157 | 417000 | B25
26 | 0.354 | 0.000139 | 393000 | B26
27 | 0.567 | 0.000155 | 273000 | B27
28 | 0.404 | 0.000209 | 517000 | B28
29 | 0.275 | 0.000206 | 749000 | B29
30 | 0.388 | 0.000212 | 546000 | B30
31 | 0.594 | 0.000184 | 309000 | B31
32 | 2 | 0.000737 | 368000 | B32
33 | 0.279 | 0.000134 | 479000 | B33
34 | 0.0954 | 5.69e-05 | 597000 | B34
35 | 0.415 | 0.000209 | 503000 | B35
36 | 1.42 | 0.000251 | 176000 | B36
37 | 0.445 | 0.000169 | 380000 | B37
38 | 0.37 | 0.000143 | 386000 | B38
